Measured values taken from paper PMC3142617 (Cell host & microbe, 2011).

Legend:
SEC-MALS = biological target: the molecule itself; experiment: SEC-MALS
AUC = biological target: the molecule itself; experiment: AUC

B1: L6TIR (L6 TIR domain, residues 29-229) (domain or fragment, flax (Linum usitatissimum))
chain: SNAKDSIVNDDDDSTSEVDAISDSTNPSGSFPSVEYEVFLSFRGPDTREQFTDFLYQSLRRYKIHTFRDDDELLKGKEIGPNLLRAIDQSKIYVPIISSGYADSKWCLMELAEIVRRQEEDPRRIILPIFYMVDPSDVRHQTGCYKKAFRKHANKFDGQTIQNWKDALKKVGDLKGWHIGKNDKQGAIADKVSADIWSHISKEN
- stoichiometry N (SEC-MALS): ~2
- Kd (AUC): 20.3 µM
- stoichiometry N (AUC): 2
